What is called Kd is the constant that tells how readily two partners part at equilibrium.

The values below come from patent US20140255407A1 (MacroGenics, published 2014).

Assay [1] has as its target T1, soluble canine B7-H3 with 6xHis tag at the carboxy terminus.
T1 chain: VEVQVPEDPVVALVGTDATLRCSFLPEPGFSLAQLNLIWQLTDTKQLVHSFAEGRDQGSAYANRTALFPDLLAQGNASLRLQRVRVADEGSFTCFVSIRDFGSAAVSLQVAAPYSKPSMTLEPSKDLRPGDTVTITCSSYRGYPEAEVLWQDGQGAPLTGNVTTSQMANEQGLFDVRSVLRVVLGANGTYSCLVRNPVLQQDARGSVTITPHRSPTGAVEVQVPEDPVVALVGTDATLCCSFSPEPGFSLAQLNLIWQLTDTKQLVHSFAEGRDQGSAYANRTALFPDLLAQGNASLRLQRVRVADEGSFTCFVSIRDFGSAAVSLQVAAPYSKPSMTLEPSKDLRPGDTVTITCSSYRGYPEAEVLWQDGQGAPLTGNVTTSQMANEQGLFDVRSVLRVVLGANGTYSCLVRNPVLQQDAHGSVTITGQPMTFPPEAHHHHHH
The assay can be described thus: SPR. (In general: Surface plasmon resonance follows binding to a sensor surface in real time, without labels.)

The target in assay [2] is T2, soluble human B7-H3 with 6xHis tag at the carboxy terminus (human, UniProt Q5ZPR3 29-466).
T2 chain: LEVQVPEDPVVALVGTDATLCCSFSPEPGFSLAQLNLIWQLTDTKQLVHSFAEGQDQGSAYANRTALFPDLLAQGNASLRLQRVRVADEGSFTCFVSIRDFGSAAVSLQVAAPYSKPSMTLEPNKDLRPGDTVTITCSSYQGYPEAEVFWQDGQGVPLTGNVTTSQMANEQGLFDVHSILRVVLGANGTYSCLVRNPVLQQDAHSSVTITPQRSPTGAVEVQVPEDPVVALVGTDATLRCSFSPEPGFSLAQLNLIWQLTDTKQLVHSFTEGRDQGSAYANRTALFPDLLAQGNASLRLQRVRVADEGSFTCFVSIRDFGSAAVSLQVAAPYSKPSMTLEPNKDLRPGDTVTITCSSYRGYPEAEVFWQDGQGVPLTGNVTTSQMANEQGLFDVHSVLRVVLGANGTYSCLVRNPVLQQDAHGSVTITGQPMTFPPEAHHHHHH
The assay can be described thus: SPR.

In assay [3] the target is T3, soluble human B7-H3 with 6xHis tag at the carboxy terminus (human, UniProt Q5ZPR3 29-466).
T3 construct: extracellular domain; also called hB7-H3; human B7H3(4Ig)-His
T3 sequence: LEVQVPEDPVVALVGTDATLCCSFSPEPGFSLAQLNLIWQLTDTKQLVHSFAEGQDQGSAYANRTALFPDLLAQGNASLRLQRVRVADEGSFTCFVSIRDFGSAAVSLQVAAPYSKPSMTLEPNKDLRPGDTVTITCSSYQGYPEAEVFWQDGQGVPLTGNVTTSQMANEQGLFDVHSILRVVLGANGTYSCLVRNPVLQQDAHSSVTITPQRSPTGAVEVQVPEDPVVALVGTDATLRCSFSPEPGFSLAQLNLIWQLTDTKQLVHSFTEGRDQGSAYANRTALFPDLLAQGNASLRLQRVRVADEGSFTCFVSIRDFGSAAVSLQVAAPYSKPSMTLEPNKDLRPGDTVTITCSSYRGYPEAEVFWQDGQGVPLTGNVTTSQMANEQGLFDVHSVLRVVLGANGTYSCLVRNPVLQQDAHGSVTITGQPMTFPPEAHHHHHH
The assay can be described thus: ELISA and SPR on soluble human B7-H3-His. How it is done:
Antibodies hBRCA84D and hBRCA69D were tested in an ELISA for binding to canine B7-H3. Briefly, soluble human B7-H3 and canine B7-H3 were expressed in CHO cells. Each soluble molecule was engineered to express a 6×His tag at the carboxy terminus to aid in purification of the expressed protein. The molecules were purified by nickel column chromatography using standard techniques. ELISA plates were coated with the soluble B7-H3 and allowed to dry. The plates were washed and blocked using standard ELISA techniques. The wells were probed with either hBRCA84D, hBRCA69D or a control hIgG. Secondary detection reagent was added and binding was determined As shown in FIG. 1A (hBRCA84D) and FIG. 1B (hBRCA69D), the antibodies were able to bind to soluble canine B7-H3 (cB7-H3). To determine binding affinity of the hBRCA84D and hBRCA69D antibodies to soluble canine B7-H3, SPR analysis was conducted. As shown in FIGS. 1C and 1D (hBRCA84D) and FIGS. 1E and 1F (BRCA69D) the binding affinities are similar to the binding of the antibodies to soluble human B7-H3 (shown in FIG. 1A and FIG. 1B, respectively).

A further assay addresses T4, Canine B7-H3.
T4 chain: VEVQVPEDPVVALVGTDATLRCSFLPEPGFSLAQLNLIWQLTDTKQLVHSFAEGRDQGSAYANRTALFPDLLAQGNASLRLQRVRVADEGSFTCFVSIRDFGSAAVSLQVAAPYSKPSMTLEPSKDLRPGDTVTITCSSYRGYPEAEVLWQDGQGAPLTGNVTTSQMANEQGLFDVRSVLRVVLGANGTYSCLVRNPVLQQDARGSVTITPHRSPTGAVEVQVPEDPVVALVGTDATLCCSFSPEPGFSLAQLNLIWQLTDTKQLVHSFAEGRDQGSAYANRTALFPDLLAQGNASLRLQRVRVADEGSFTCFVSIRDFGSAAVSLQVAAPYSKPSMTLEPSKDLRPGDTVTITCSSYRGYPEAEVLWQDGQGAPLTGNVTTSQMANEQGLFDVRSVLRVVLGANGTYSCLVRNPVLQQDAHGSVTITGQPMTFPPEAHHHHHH
The assay can be described thus: SPR.

In another assay the target is T5, Human B7-H3 (human, UniProt Q5ZPR3 29-466).
T5 chain: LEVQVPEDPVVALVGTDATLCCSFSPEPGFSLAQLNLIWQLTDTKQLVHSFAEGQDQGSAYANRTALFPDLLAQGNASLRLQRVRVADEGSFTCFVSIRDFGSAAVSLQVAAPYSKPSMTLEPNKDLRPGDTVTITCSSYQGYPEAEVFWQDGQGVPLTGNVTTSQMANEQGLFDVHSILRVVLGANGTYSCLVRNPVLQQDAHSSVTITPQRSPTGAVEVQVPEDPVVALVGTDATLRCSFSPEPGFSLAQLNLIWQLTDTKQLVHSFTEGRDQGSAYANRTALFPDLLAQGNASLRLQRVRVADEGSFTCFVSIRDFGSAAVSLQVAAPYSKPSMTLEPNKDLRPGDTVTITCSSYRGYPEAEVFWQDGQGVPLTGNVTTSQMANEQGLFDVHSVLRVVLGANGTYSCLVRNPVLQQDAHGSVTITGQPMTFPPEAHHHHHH
The assay can be described thus: SPR.

B1: hBRCA69D (humanized antibody BRCA69D) (antibody, V domains shown)
VH: QVQLVQSGAEVKKPGASVKVSCKASGYTFTSYWMQWVRQAPGQGLEWMGTIYPGDGDTRYTQKFKGRVTITADKSTSTAYMELSSLRSEDTAVYYCARRGIPRLWYFDVWGQGTTVTVSS
VL: DIQMTQSPSSLSASVGDRVTITCRASQDISNYLNWYQQKPGKAPKLLIYYTSRLHSGVPSRFSGSGSGTDFTLTISSLQPEDIATYYCQQGNTLPPTFGGGTKLEIK
notes: Residue limits are my derivation
Regarding B1, the Kd worked out at 8.4 nM in assay [1] and 8.8 nM in assay [2]. Further, in assay [3], the binding result is “binds”.

B2: hBRCA84D (antibody, V domains shown)
VH: EVQLVESGGGLVQPGGSLRLSCAASGFTFSSFGMHWVRQAPGKGLEWVAYISSDSSAIYYADTVKGRFTISRDNAKNSLYLQMNSLRDEDTAVYYCGRGRENIYYGSRLDYWGQGTTVTVSS
VL: DIQLTQSPSFLSASVGDRVTITCKASQNVDTNVAWYQQKPGKAPKALIYSASYRYSGVPSRFSGSGSGTDFTLTISSLQPEDFATYYCQQYNNYPFTFGQGTKLEIKR
On to B2, for which the dissociation constant Kd with Canine B7-H3 turned out to be 39 nM; in the assay with Human B7-H3, 45 nM.
